Assay results taken from patent publication US20240368565A1, “COMPLEMENTATION-BASED TAGS AND REPORTERS FOR DUAL-MODALITY LABELING” (Promega Corporation, priority 2023, published 2024).
pKd: −log10 of the molar value. Peptide text beside a SMILES is read from it. * marks the point of attachment. Biotin = O=C1N[C@H]2[C@H](CS[C@H]2CCCCC(=O)*)N1

Assays:
Assay in all cases: biochemical
Assay type in all cases: binding
[1] = target: HaloTag[22-297](M2F + D53G + K140E)-12xGly/Ser-LgBiT-3xGly/Ser-6xHis (Rhodococcus rhodochrous, UniProt P0A3G2, A155T/A167V/A172T/A224E/C128F/C176G/D73G/D78G/E257K/H272N/K175M/K195N/L47V/L88M/N227D/S58T/T264A/Y273L/Y87F)
[2] = target: HaloTag[22-297](M2F + K140E)-12xGly/Ser-LgBiT-3xGly/Ser-6xHis (Rhodococcus rhodochrous, UniProt P0A3G2, A155T/A167V/A172T/A224E/C128F/C176G/D78G/E257K/H272N/K175M/K195N/L47V/L88M/N227D/S58T/T264A/Y273L/Y87F); conditions: biotinylated peptide on streptavidin probes, PBST, 25° C.; for pKd: KD
[3] = target: LgBiT-6xHis (Oplophorus gracilirostris, UniProt Q9GV45, A31E/A60N/A81I/D135N/F58L/F95D/G42A/G62A/G78A/G94A/G98A/H120P/I103V/I117V/I134L/K70R/L176M/L54V/L73R/L99Q/M102E/N171T/P142E/Q151K/Q38E/Q45L/V71I/Y165I)
[4] = biotinylated peptide on streptavidin probes, PBST, 25° C.

## CC[C@H](C)[C@H](NC(=O)[C@H](CCCCN)NC(=O)[C@H](CCCCN)NC(=O)[C@H](Cc1ccccc1)NC(=O)[C@H](CC(C)C)NC(=O)[C@H](CCCNC(=N)N)NC(=O)[C@H](Cc1c[nH]c2ccccc12)NC(=O)CNC(=O)[C@H](CO)NC(=O)[C@@H](NC(=O)[C@H](CO)NC(=O)[C@@H](NC(=O)CNC(=O)[C@H](CC(C)C)NC(=O)[C@@H](NC(=O)[C@H](CCC(=O)O)NC(=O)[C@@H](NC(=O)[C@H](Cc1ccc(O)cc1)NC(=O)[C@H](Cc1c[nH]cn1)NC(=O)[C@@H]1CCCN1C(=O)[C@H](CC(=O)O)NC(=O)[C@H](Cc1ccccc1)NC(=O)[C@@H]1CCCN1C(=O)[C@H](Cc1ccccc1)NC(=O)CNC(=O)[C@@H](NC(=O)CNC(=O)[C@H](CCCNC(=N)N)NC(=O)[C@H](CCC(=O)O)NC(=O)CCCC[C@@H]1SC[C@@H]2NC(=O)N[C@@H]21)[C@@H](C)O)C(C)C)C(C)C)C(C)C)C(C)C)C(=O)N[C@@H](CO)C(=O)O [HaloTag[3-19](I2R)-VSHiBiT] (Biotin-ERGTGFPFDPHYVEVLGVSVSGWRLFKKIS-OH)
[1]
  pKd: 9.15

## EIKTGFPFDPHYVKVLGGGSGVSVSGWRLFKKIS [HaloTag[3-19](G3K + E14K)-4xGS-VSHiBiT]
[2]
  Koff: NA (dissociation that is too slow for the instrument to measure (limit 10^6 l/s))
  Kon: 128000 M⁻¹ s⁻¹

## ERGTGFPFRPHYVEVLGGGSGVSVSGWRLFKKIS [HaloTag[3-19](I2R + D9R)-4xGS-VSHiBiT]
[2]
  Koff: NA (dissociation that is too slow for the instrument to measure (limit 10^6 l/s))
  Kon: 128000 M⁻¹ s⁻¹

## CC[C@H](C)[C@H](NC(=O)[C@H](CCCCN)NC(=O)[C@H](CCCCN)NC(=O)[C@H](Cc1ccccc1)NC(=O)[C@H](CC(C)C)NC(=O)[C@H](CCCNC(=N)N)NC(=O)[C@H](Cc1c[nH]c2ccccc12)NC(=O)CNC(=O)[C@H](CO)NC(=O)[C@@H](NC(=O)[C@H](CO)NC(=O)[C@@H](NC(=O)CNC(=O)[C@H](CO)NC(=O)CNC(=O)CNC(=O)CNC(=O)[C@H](CC(C)C)NC(=O)[C@@H](NC(=O)[C@H](CCC(=O)O)NC(=O)[C@@H](NC(=O)[C@H](Cc1ccc(O)cc1)NC(=O)[C@H](Cc1c[nH]cn1)NC(=O)[C@@H]1CCCN1C(=O)[C@H](CC(=O)O)NC(=O)[C@H](Cc1ccccc1)NC(=O)[C@@H]1CCCN1C(=O)[C@H](Cc1ccccc1)NC(=O)[C@H](CCCNC(=N)N)NC(=O)[C@@H](NC(=O)CNC(=O)[C@H](CCCNC(=N)N)NC(=O)[C@H](CCC(=O)O)NC(=O)CCCC[C@@H]1SC[C@@H]2NC(=O)N[C@@H]21)[C@@H](C)O)C(C)C)C(C)C)C(C)C)C(C)C)C(=O)N[C@@H](CO)C(=O)O [HaloTag[3-19](I2R + G5R)-4xGS-VSHiBiT] (Biotin-ERGTRFPFDPHYVEVLGGGSGVSVSGWRLFKKIS-OH)
[3]
  pKd: 9.96

## CC[C@H](C)[C@H](NC(=O)[C@H](CCCCN)NC(=O)[C@H](CCCCN)NC(=O)[C@H](Cc1ccccc1)NC(=O)[C@H](CC(C)C)NC(=O)[C@H](CCCNC(=N)N)NC(=O)[C@H](Cc1c[nH]c2ccccc12)NC(=O)CNC(=O)[C@H](CO)NC(=O)[C@@H](NC(=O)[C@H](CO)NC(=O)[C@@H](NC(=O)CNC(=O)[C@H](CO)NC(=O)CNC(=O)CNC(=O)CNC(=O)[C@H](CC(C)C)NC(=O)[C@@H](NC(=O)[C@H](CCC(=O)O)NC(=O)[C@@H](NC(=O)[C@H](Cc1ccc(O)cc1)NC(=O)[C@H](Cc1c[nH]cn1)NC(=O)[C@@H]1CCCN1C(=O)[C@H](CC(=O)O)NC(=O)[C@H](Cc1ccccc1)NC(=O)[C@@H]1CCCN1C(=O)[C@H](Cc1ccccc1)NC(=O)CNC(=O)[C@@H](NC(=O)[C@H](CCCCN)NC(=O)[C@H](CCCNC(=N)N)NC(=O)[C@H](CCC(=O)O)NC(=O)CCCC[C@@H]1SC[C@@H]2NC(=O)N[C@@H]21)[C@@H](C)O)C(C)C)C(C)C)C(C)C)C(C)C)C(=O)N[C@@H](CO)C(=O)O [HaloTag[3-19](I2R + G3K)-4xGS-VSHiBiT] (Biotin-ERKTGFPFDPHYVEVLGGGSGVSVSGWRLFKKIS-OH)
[3]
  pKd: 9.49

## CC[C@H](C)[C@H](NC(=O)[C@H](CCCCN)NC(=O)[C@H](CCCCN)NC(=O)[C@H](Cc1ccccc1)NC(=O)[C@H](CC(C)C)NC(=O)[C@H](CCCNC(=N)N)NC(=O)[C@H](Cc1c[nH]c2ccccc12)NC(=O)CNC(=O)[C@H](CO)NC(=O)[C@@H](NC(=O)CNC(=O)[C@H](CO)NC(=O)CNC(=O)CNC(=O)CNC(=O)[C@H](CC(C)C)NC(=O)[C@@H](NC(=O)[C@H](CCC(=O)O)NC(=O)[C@@H](NC(=O)[C@H](Cc1ccc(O)cc1)NC(=O)[C@H](Cc1c[nH]cn1)NC(=O)[C@@H]1CCCN1C(=O)[C@H](CC(=O)O)NC(=O)[C@H](Cc1ccccc1)NC(=O)[C@@H]1CCCN1C(=O)[C@H](Cc1ccccc1)NC(=O)CNC(=O)[C@@H](NC(=O)CNC(=O)[C@H](CCCNC(=N)N)NC(=O)[C@H](CCC(=O)O)NC(=O)CCCC[C@@H]1SC[C@@H]2NC(=O)N[C@@H]21)[C@@H](C)O)C(C)C)C(C)C)C(C)C)C(=O)N[C@@H](CO)C(=O)O [HaloTag[3-19](I2R)-4xGly/Ser-HiBiT] (Biotin-ERGTGFPFDPHYVEVLGGGSGVSGWRLFKKIS-OH)
[1]
  pKd: 9.49

## ERGTGFPFDPHYVEVLRGGSGVSVSGWRLFKKIS [HaloTag[3-19](I2R + G17R)-4xGS-VSHiBiT]
[2]
  Koff: NA (dissociation that is too slow for the instrument to measure (limit 10^6 l/s))
  Kon: 93300 M⁻¹ s⁻¹

## ERGTGFPFDPHYVEVLGGGSGVSVSGWRLFRRIS
[1]; [4]
  Koff: NA (dissociation that is too slow for the instrument to measure (limit 10^6 l/s))
  Kon: 71400 M⁻¹ s⁻¹

## CC[C@H](C)[C@H](NC(=O)[C@H](CCC(=O)O)NC(=O)CCCC[C@@H]1SC[C@@H]2NC(=O)N[C@@H]21)C(=O)NCC(=O)N[C@H](C(=O)NCC(=O)N[C@@H](Cc1ccccc1)C(=O)N1CCC[C@H]1C(=O)N[C@@H](Cc1ccccc1)C(=O)N[C@@H](CCCNC(=N)N)C(=O)N1CCC[C@H]1C(=O)N[C@@H](Cc1c[nH]cn1)C(=O)N[C@@H](Cc1ccc(O)cc1)C(=O)N[C@H](C(=O)N[C@@H](CCCCN)C(=O)N[C@H](C(=O)N[C@@H](CC(C)C)C(=O)NCC(=O)NCC(=O)NCC(=O)N[C@@H](CO)C(=O)NCC(=O)N[C@H](C(=O)N[C@@H](CO)C(=O)N[C@H](C(=O)N[C@@H](CO)C(=O)NCC(=O)N[C@@H](Cc1c[nH]c2ccccc12)C(=O)N[C@@H](CCCNC(=N)N)C(=O)N[C@@H](CC(C)C)C(=O)N[C@@H](Cc1ccccc1)C(=O)N[C@@H](CCCCN)C(=O)N[C@@H](CCCCN)C(=O)N[C@H](C(=O)N[C@@H](CO)C(=O)O)[C@@H](C)CC)C(C)C)C(C)C)C(C)C)C(C)C)[C@@H](C)O [HaloTag[3-19](D9R + E14K)-4xGS-VSHiBiT] (Biotin-EIGTGFPFRPHYVKVLGGGSGVSVSGWRLFKKIS-OH)
[2]
  pKd: 9.95

## EIGTGFPFRPHYVEVRGGGSGVSVSGWRLFKKIS [HaloTag[3-19](D9R + L16R)-4xGS-VSHiBiT]
[2]
  Koff: NA (dissociation that is too slow for the instrument to measure (limit 10^6 l/s))
  Kon: 134000 M⁻¹ s⁻¹
[3]; [4]
  Koff: NA (dissociation that is too slow for the instrument to measure (limit 10^6 l/s))
  Kon: 64800 M⁻¹ s⁻¹

## EIGTGFPFDPHYVKVLGGGSGVSVSGWRLFKKIS [HaloTag[3-19](E14K)-4xGly/Ser-VSHiBiT]
[2]
  Koff: NA (dissociation that is too slow for the instrument to measure (limit 10^6 l/s))
  Kon: 108000 M⁻¹ s⁻¹

## EIKTGFPFDPHYVEVRGGGSGVSVSGWRLFKKIS [HaloTag[3-19](G3K + L16R)-4xGS-VSHiBiT]
[2]
  Koff: NA (dissociation that is too slow for the instrument to measure (limit 10^6 l/s))
  Kon: 97100 M⁻¹ s⁻¹

## CC[C@H](C)[C@H](NC(=O)[C@H](CCC(=O)O)NC(=O)CCCC[C@@H]1SC[C@@H]2NC(=O)N[C@@H]21)C(=O)NCC(=O)N[C@H](C(=O)NCC(=O)N[C@@H](Cc1ccccc1)C(=O)N1CCC[C@H]1C(=O)N[C@@H](Cc1ccccc1)C(=O)N[C@@H](CCCNC(=N)N)C(=O)N1CCC[C@H]1C(=O)N[C@@H](Cc1c[nH]cn1)C(=O)N[C@@H](Cc1ccc(O)cc1)C(=O)N[C@H](C(=O)N[C@@H](CCC(=O)O)C(=O)N[C@H](C(=O)N[C@@H](CC(C)C)C(=O)NCC(=O)NCC(=O)NCC(=O)N[C@@H](CO)C(=O)NCC(=O)N[C@H](C(=O)N[C@@H](CO)C(=O)N[C@H](C(=O)N[C@@H](CO)C(=O)NCC(=O)N[C@@H](Cc1c[nH]c2ccccc12)C(=O)N[C@@H](CCCNC(=N)N)C(=O)N[C@@H](CC(C)C)C(=O)N[C@@H](Cc1ccccc1)C(=O)N[C@@H](CCCCN)C(=O)N[C@@H](CCCCN)C(=O)N[C@H](C(=O)N[C@@H](CO)C(=O)O)[C@@H](C)CC)C(C)C)C(C)C)C(C)C)C(C)C)[C@@H](C)O [HaloTag[3-19](D9R)-4xGly/Ser-VSHiBiT] (Biotin-EIGTGFPFRPHYVEVLGGGSGVSVSGWRLFKKIS-OH)
[2]
  pKd: 9.90

## EIGTGFPFDPHYVEVRGGGSGVSVSGWRLFKKIS [HaloTag[3-19](L16R)-4xGly/Ser-VSHiBiT]
[2]
  Koff: NA (dissociation that is too slow for the instrument to measure (limit 10^6 l/s))
  Kon: 77900 M⁻¹ s⁻¹
